Source: patent publication US7527943B2, “Compositions of orthogonal glutamyl-tRNA and aminoacyl-tRNA synthetase pairs and uses thereof” (The Scripps Research Institute, priority 2003, dated 2009)

B1: MtERS: glutamyl-tRNA synthetase from M. thermoautotrophicum (protein, listed as Methanobacterium thermoautotrophicum)
chain: VVPVEDLVYRYALLNAVKHRGRANPGAVMGAVMSNEPELRKMAPQVKEAVEAAVERVNSLSPEEQQQEMERLGLEITERKQKKRKGLRELAGVKGEVVLRFAPNPSGPLHIGHARAAILNHEYARKYDGRLILRIEDTDPRRVDPEAYDMIPADLEWLGVEWDETVIQSDRMETYYEYTEKLIERGGAYVCTCRPEEFRELKNRGEACHCRSLGFRENLQRWREMFEMKEGSAVVRVKTDLNHPNPAIRDWVSMRIVEAEHPRTGTRYRVYPMMNFSVAVDDHLLGVTHVLRGKDHLANREKQEYLYRHLGWEPPEFIHYGRLKMDDVALSTSGAREGILRGEYSGWDDPRLGTLRAIARRGIRPEAIRKLMVEIGVKIADSTMSWKKIYGLNRSILEEEARRYFFAADPVKLEVVGLPGPVRVERPLHPDHPEIGNRVLELRGEVYLPGDDLGEGPLRLIDAVNVIYSGGELRYHSEGIEEARELGASMIHWVPAESALEAEVIMPDASRVRGVIEADASELEVDDVVQLERFGFARLDSAGPGMVFYYAHK
B2: AfERS: glutamyl-tRNA synthetase from A. fulgidus (protein, listed as Archaeoglobus fulgidus)
chain: VKEVIMKYVVQNAAKYGKASEKAVMGKVMAENPELRKKAKEVLELVKECITEFEALSEEVRKELIKKYSMDSEAKRELETKKLPELEGAEKGKVVMRFAPNPNGPPTLGSARGIIVNGEYAKMYEGKYIIRFDDTDPRTKRPMIEAYEWYLEDIEWLGYKPDEVIYASRRIPIYYDYARKLIEMGKAYTCFCSQEEFKKFRDSGEECPHRNISVEDTLEVWERMLEGDYEEGEVVLRIKTDMRHKDPAIRDWVAFRIIKESHPLVGDKYVVYPTLDFESAIEDHLLGITHIIRGKDLIDSERRQRYIYEYFGWIYPITKHWGRVKIFEFGKLSTSSIKKDIERGKYEGWDDPRLPTLRAFRRRGFEPEAIKSFFLSLGVGENDVSVSLKNLYAENRKIIDRKANRYFFIWGPVKIEIVNLPEKKEVELPLNPHTGEKRRLKGERTIYVTKDDFERLKGQVVRLKDFCNVLLDEKAEFMGFELEGVKKGKNIIHWLPESEAIKGKVIGEREAEGLVERNAVRDVGKVVQFERFAFCKVESADEELVAVYTHP
B3: AE(GC): archaeal glutamyl consensus-derived amber suppressor tRNA, GC base pair at position 10-28 (nucleic acid)
chain: GCCCCGGUGGUGUAGCCCGGCCAAGCACGCGGGCCUCUAAAGCCCGCGACCCGGGUUCAAAUCCCGGCCGGGGCACCA
modifications: chemistry not fully specified
B4: EcERS: E. coli glutamyl-tRNA synthetase, used as a control (protein, UniProt P04805 1-471, looked up)
Glutamate--tRNA ligase: MKIKTRFAPSPTGYLHVGGARTALYSWLFARNHGGEFVLRIEDTDLERSTPEAIEAIMDGMNWLSLEWDEGPYYQTKRFDRYNAVIDQMLEEGTAYKCYCSKERLEALREEQMAKGEKPRYDGRCRHSHEHHADDEPCVVRFANPQEGSVVFDDQIRGPIEFSNQELDDLIIRRTDGSPTYNFCVVVDDWDMEITHVIRGEDHINNTPRQINILKALKAPVPVYAHVSMINGDDGKKLSKRHGAVSVMQYRDDGYLPEALLNYLVRLGWSHGDQEIFTREEMIKYFTLNAVSKSASAFNTDKLLWLNHHYINALPPEYVATHLQWHIEQENIDTRNGPQLADLVKLLGERCKTLKEMAQSCRYFYEDFAEFDADAAKKHLRPVARQPLEVVRDKLAAITDWTAENVHHAIQATADELEVGMGKVGMPLRVAVTGAGQSPALDVTVHAIGKTRSIERINKALDFIAERENQQ
B5: MmERS: glutamyl-tRNA synthetase from M. mazei (protein, listed as Methanosarcina mazeii)
chain: MTLSPEDIKIIEKYALQNAVKYGKAPQPKAVMGKVMGECPQLRADPSGVSAALENIVSEIAKGNPEAWEARLSEIAPELIEALSVKKEPDKGLKPLEGAETGKVVMRFAPNPNGPATLGSSRGMVVNSEYVKVYKGKFILRFDDTDPDIKRPMLEAYDWYMDDFKWLGVVPDQVVRASDRFPIYYDYARKLIEMGKAYVCFCKGEDFKRLKDSKKACPHRDTDPEENLMHWEKMLAGEYEDQQAVLRIKTDIEHKDPALRDWGAFRIRKMSHPRPEIGNKYIVWPLLDFAGAIEDHELGMTHIIRGKDLIDSEKRQTYIYKYFGWTYPKTTHWGRVKIHEFGKFSTSTLRKAIESGEYSGWDDPRLPTIRAIRRRGIRAEALKKFMIEMGVGMTDVSISMESLYAENRKIVDPVANRYFFVWNPVELEIEGMKPVVAKVPRHPTDHARGMREISIENKVLVCAEDIEKLNVGSVLRLKDLCNVEITSLSPLRVKRSETSLEDLKKAKGKIIHWVPVDGIPVKVCGPEGDIEGTGERGIETELDNIVQFERFGFCRIDAVDGENVVAYFAHK
B6: PhERS: glutamyl-tRNA synthetase from P. horikoshii (protein, listed as Pyrococcus horikoshii)
chain: MDVEKIALKHALINAIEHGGKANLKAVIGKVLGENPELRPRAKEIIPIINKVVEEVNSLARDEQLEKLKDIYPEYFEKKEEKKEKKGLPLLPKAEKGKVVTRFAPNPDGAFHLGNARAAILSYEYAKMYGGKFILRFDDTDPKVKRPEPIFYKMIIEDLEWLGIKPDEIVYASDRLEIYYKYAEELIKMGKAYVCTCPPEKFRELRDKGIPCPHRDEPVEVQLERWKKMLNGEYKEGEAVVRIKTDLNHPNPAVRDWPALRIIDNPNHPRTGNKYRVWPLYNFASAIDDHELGVTHIFRGQEHAENETRQRYIYEYFGWEYPVTIHHGRLSIEGVVLSKSKTRKGIEEGKYLGWDDPRLGTIRALRRRGILPEAIKELIIEVGLKKSDATISWENLAAINRKLVDPIANRYFFVADPIPMEVEGAPEFIAEIPLHPDHPERGVRRLKFTPERPVYVSKDDLNLLKPGNFVRLKDLFNVEILEVGDKIRARFYSFEYEIAKKNRWKMVHWVTEGRPCEVIIPEGDELVVRKGLLEKDAKVQVNEIVQFERFGFVRIDRIEGDKVIAIYAHK

Legend:
[1] = system: whole halobacterial tRNA; assay: in vitro aminoacylation assay with [3H]-glutamic acid, whole halobacterial tRNA; format: biochemical, Halobacterium sp. NRC-1; conditions: 750 nM synthetase, 15 minutes at 37° C.
Experimental: (§1) In vitro aminoacylation assays: Reactions were carried out as described previously (see, e.g., Hoben, P. and Soll, D. (1985) Glutaminyl-tRNA synthetase of Escherichia coli. Methods Enzymol., 113:55-59). Each 20-μL reaction contained 50 mM Tris-HCl (pH 7.5), 30 mM KCl, 20 mM MgCl2, 0.1 mg/mL BSA, 5 mM glutathione, 2.5 mM ATP, 100 nM 1-[G-^3H]Glutamic acid (Amersham), 750 nM aminoacyl-tRNA synthetase, and 40 μM whole halobacterial tRNA. Reactions were allowed to proceed for 15 minutes at 37° C.
Orthogonality of archaeal glutamyl-tRNA synthetases in E. coli: The ampicillin IC50 measurements described above provide insights into the orthogonality of consensus-designed tRNAs, but provide no information about the orthogonality of archaeal glutamyl-tRNA synthetases in E. coli. To investigate synthetase orthogonality, the AfERS, MnERS, MtERS, and PhERS genes were inserted into a protein overexpression vector. E. coli glutamyl-tRNA synthetase (EcERS) was inserted into the same vector for use as a control. Synthetases were overexpressed in E. coli, purified to homogeneity, and used in an in vitro aminoacylation assay with whole tRNA prepared from either E. coli or the halophilic archaebacterium Halobacterium sp. NRC-1. […] In these experiments, it is unclear why AfERS and MmERS could not aminoacylate whole halobacterial tRNA in vitro (≦5 pmol/L). Without being limited to one theory, it is possible that the enzyme purification and/or assay conditions employed were deleterious to the aminoacylation activity of AfERS and MmERS. Another possibility is that subtle differences in tRNA identity elements might preclude recognition of a given archaeal tRNA^Glu by all archaeal glutamyl-tRNA synthetases. To test the latter, the activity of MmERS was investigated using the in vitro aminoacylation assay with whole tRNA derived from E. coli expressing the AE(GC) tRNA.

[2] = system: β-lactamase reporter gene containing an amber mutation at the permissive site Ala184; format: cell-based, E. coli; conditions: for ampicillin IC50 fold greater with AE(GC) tRNA than with AE(GU) tRNA: same synthetase co-expressed
Experimental: Ampicillin IC50 value measurements: To examine the orthogonality of tRNAs, 10 μL of E. coli DH10B cells (1 cfu/μL) carrying a tRNA-expressing plasmid were plated on a series of LB agar plates containing chloramphenicol and varying concentrations of ampicillin. To measure the IC50 values for cells carrying both tRNA- and synthetase-expressing plasmids, cells were plated on LB agar plates containing chloramphenicol, kanamycin, and varying concentrations of ampicillin. In the initial series, cells were plated on five ampicillin concentrations varying from 0 to 1000 μg/mL and incubated overnight at 37° C. In subsequent series, cells were plated on a narrower ampicillin concentration range surrounding the value initial ampicillin IC50 value estimate. […] Measurements were made in duplicate or triplicate for each cell strain.
Orthogonality of tRNAs: To test the activity and cross-reactivity of the AE(GU), AQ(GU), and AQ(GC) tRNAs, their genes were inserted into plasmid pACKO-A184TAG. E. coli cells were transformed with the resulting plasmids, pAC-AE(GU), pAC-AQ(GU), and pAC-AQ(GC), and the ampicillin IC50 values for the cells were assayed. The tRNA-expressing pAC-based plasmids carry a β-lactamase reporter gene containing an amber mutation at the permissive site Ala184, which serves as a useful reporter for amber codon suppression. Acylation of an amber suppressor tRNA causes the incorporation of the activated amino acid at position 184 of β-lactamase, resulting in suppression of the amber stop codon, production of active full-length β-lactamase and resistance to ampicillin. Because an orthogonal tRNA should not cross-react with endogenous aminoacyl-tRNA synthetases, strains transformed with an orthogonal suppressor tRNA alone should survive only on low concentrations of ampicillin. To assess the orthogonality of designed tRNAs, E. coli transformants were plated on LB agar plates containing varying concentrations of ampicillin (FIG. 2).

[3] = system: whole E. coli tRNA; assay: in vitro aminoacylation assay with [3H]-glutamic acid, whole E. coli tRNA; format: biochemical; conditions: 750 nM synthetase, 15 minutes at 37° C.
Experimental: as §1
(§2) Orthogonality of archaeal glutamyl-tRNA synthetases in E. coli: The ampicillin IC50 measurements described above provide insights into the orthogonality of consensus-designed tRNAs, but provide no information about the orthogonality of archaeal glutamyl-tRNA synthetases in E. coli. To investigate synthetase orthogonality, the AfERS, MnERS, MtERS, and PhERS genes were inserted into a protein overexpression vector. E. coli glutamyl-tRNA synthetase (EcERS) was inserted into the same vector for use as a control. Synthetases were overexpressed in E. coli, purified to homogeneity, and used in an in vitro aminoacylation assay with whole tRNA prepared from either E. coli or the halophilic archaebacterium Halobacterium sp. NRC-1. […] In these experiments, it is unclear why AfERS and MmERS could not aminoacylate whole halobacterial tRNA in vitro (≦5 pmol/L). […]

[4] = system: whole tRNA derived from E. coli expressing the AE(GC) tRNA; assay: in vitro aminoacylation assay with whole tRNA from E. coli expressing AE(GC) tRNA; format: biochemical
Experimental: as §1, §2

[5] = synthetase co-expressed with AE(GU) tRNA

Molecule | aminoacylation of whole archaeal (halobacterial) tRNA with [3H]-glutamic acid [1] [pmol/L] | ampicillin IC50 fold higher than cells expressing AE(GU) alone [2, 5] [fold] | ampicillin IC50 fold greater with AE(GC) tRNA than with AE(GU) tRNA [2] [fold] | also measured
B1 | 530 | 6 |  | 
B2 |  | 7 |  | 
B3 |  |  |  | ampicillin IC50 fold increase relative to cells expressing AE(GU) tRNA alone ([2]; tRNA alone, no synthetase): 4 fold
B4 | 1.7 |  |  | aminoacylation of whole E. coli tRNA with [3H]-glutamic acid [3]: 14,000 pmol/L
B5 |  | 20 | 4.5 | aminoacylation activity [4]: no activity was observed; ampicillin IC50 fold lower than M. jannaschii-derived tyrosine pair [2, 5]: 4.5 fold; ampicillin IC50 fold lower than M. thermoautotrophicum-derived leucine pair [2, 5]: 10 fold
B6 | 1100 | 12 | ~3.5 | amber suppression efficiency fold less than that of the tyrosyl-tRNA synthetase ([2]; together with the AE(GC) tRNA in E. coli): ~2 fold
